The subject of data set [1] is Trichomonas vaginalis homocysteinase, isolated native enzyme (may reflect expression from more than one gene). Conditions: native enzyme isolated from T. vaginalis; Lockwood et al., 1991; cited from earlier work.
For data set [2] the following is noted: from the relative activity scale. From the text:
Homocysteinase enzymes of suitable catalytic activity for use as starting materials to obtain mutated forms can be derived from other Pseudomonas species, or from other bacteria, using routine screening procedures and assays that are recognized in the art.

Another data set has as its system N[C@@H](CS)C(=O)O. As to the kind of experiment: Km of the novel homocysteinase expressed from the pAC2-1 clone (α-ketobutyrate/pyruvate assay, MBTH). The data set is classed as biochemical, Trichomonas vaginalis. The settings on record: other: 37° C., pH 8.0, 100 mM phosphate buffer, 10 μM pyridoxal phosphate, 10 minutes, DL-homocysteine, L-cysteine or L-methionine separately, 10 μM to 1.6 mM. From the text: (§1) In FIG. 1 (panels A and B) are depicted the amino acid sequences of two Trichomonas vaginalis homocysteinases, the first derived from a novel clone (pAC2-1) of the present invention, and the second, the enzyme derived from the known mgl1 gene (see also SEQ ID NOS: 10 and 12 for comparison of amino acids; SEQ ID NOS: 9 and 11 for comparison of encoding DNA's). It will be seen that pAC2-1 is characterized by the existence of three differences (mutations), compared to mgl1:
(§2) Phe to Leu at amino acid position 47,
(§3) Asp to Glu at amino acid position 172, and
(§4) Ser to Tyr at amino acid position 308.
(§5) In the first step of this assay, 1 ml volumes of 100 mM phosphate buffer pH 8.0, containing also 10 μM pyridoxal phosphate, […], respectively, were incubated, for 10 min at 37° C., with a sufficient sample (typically 50 μl) of crude cell extract (cells were sonicated, and the supernatant was recovered following centrifugation) to provide about 1-100 units of homocysteinase (“HCYase”) enzyme. The reactions were stopped by adding 0.1 ml of 50% TCA. The suspensions were then centrifuged using an Eppendorf centrifuge at 13 k rpm for 2 minutes. 0.5 ml samples of the supernatants were then added to 0.5 ml of 0.05% 3-methyl-2-benzothiazolinone hydrazone (“MBTH”) in 0.8 ml of 1M sodium acetate, pH 5.2 and incubated at 50° C. for 30 min. The amount of reaction products was determined for each sample, by spectrophotometry at OD320. The amount of protein was determined with a Bio-Rad 500-0006 kit (Bio-Rad, Richmond, Calif.) with bovine serum albumin as a standard. The enzyme specific activity was calculated as units/mg protein, with one unit of enzyme defined as the amount that catalyzes the formation of 1 μmol of α-ketobutyrate from homocysteine per minute. […]
(§6) The reaction was stopped by adding 0.1 ml of 50% TCA. […] The amount of reaction product was then determined by spectrophotometry at OD320. The Kcat (turnover number) values reported in FIG. 5, were determined from the calculation of Vmax values using standard kinetic expressions and plots.

Another data set relates to CSCC[C@H](N)C(=O)O. Described as above. The data set is classed as biochemical, Trichomonas vaginalis. Conditions: other: 37° C., pH 8.0, 100 mM phosphate buffer, 10 μM pyridoxal phosphate, 10 minutes, DL-homocysteine, L-cysteine or L-methionine separately, 10 μM to 1.6 mM.
Text: as §1, §2, §3, §4, §5, §6

For the next data set, the system named is N[C@@H](CCS)C(=O)O. The description is as above. Format: biochemical, Trichomonas vaginalis. Conditions: other: 37° C., pH 8.0, 100 mM phosphate buffer, 10 μM pyridoxal phosphate, 10 minutes, DL-homocysteine, L-cysteine or L-methionine separately, 10 μM to 1.6 mM.
Text: as §1, §2, §3, §4, §5, §6

Data set [3] is described as follows: Relative activity toward homocysteine versus cysteine or methionine. Format: biochemical. The settings on record: apparent activity. The method, then:
In the first step of this assay, 1 ml volumes of 100 mM phosphate buffer pH 8.0, containing also 10 μM pyridoxal phosphate, and different concentrations (25 μM-25 mM) of DL-homocysteine, or L-methionine, L-cysteine, respectively, were incubated, for 10 min at 37° C., with a sufficient sample (typically 50 μl) of crude cell extract (cells were sonicated, and the supernatant was recovered following centrifugation) to provide about 1-100 units of homocysteinase (“HCYase”) enzyme. The reactions were stopped by adding 0.1 ml of 50% TCA. The suspensions were then centrifuged using an Eppendorf centrifuge at 13 k rpm for 2 minutes. 0.5 ml samples of the supernatants were then added to 0.5 ml of 0.05% 3-methyl-2-benzothiazolinone hydrazone (“MBTH”) in 0.8 ml of 1M sodium acetate, pH 5.2 and incubated at 50° C. for 30 min. The amount of reaction products was determined for each sample, by spectrophotometry at OD320. The amount of protein was determined with a Bio-Rad 500-0006 kit (Bio-Rad, Richmond, Calif.) with bovine serum albumin as a standard. The enzyme specific activity was calculated as units/mg protein, with one unit of enzyme defined as the amount that catalyzes the formation of 1 μmol of α-ketobutyrate from homocysteine per minute. The assay procedure can, of course, also be used with purified homocysteinase samples that provide, for example, 1-100 units of enzyme per assay test. […]

A short description of data set [4]: Homocysteinase specific activity, α-ketobutyrate assay. Format: biochemical. The protocol:
In the first step of this assay, 1 ml volumes of 100 mM phosphate buffer pH 8.0, containing also 10 μM pyridoxal phosphate, and different concentrations (25 μM-25 mM) of DL-homocysteine, or L-methionine, L-cysteine, respectively, were incubated, for 10 min at 37° C., with a sufficient sample (typically 50 μl) of crude cell extract (cells were sonicated, and the supernatant was recovered following centrifugation) to provide about 1-100 units of homocysteinase (“HCYase”) enzyme. The reactions were stopped by adding 0.1 ml of 50% TCA. The suspensions were then centrifuged using an Eppendorf centrifuge at 13 k rpm for 2 minutes. 0.5 ml samples of the supernatants were then added to 0.5 ml of 0.05% 3-methyl-2-benzothiazolinone hydrazone (“MBTH”) in 0.8 ml of 1M sodium acetate, pH 5.2 and incubated at 50° C. for 30 min. The amount of reaction products was determined for each sample, by spectrophotometry at OD320. The amount of protein was determined with a Bio-Rad 500-0006 kit (Bio-Rad, Richmond, Calif.) with bovine serum albumin as a standard. The enzyme specific activity was calculated as units/mg protein, with one unit of enzyme defined as the amount that catalyzes the formation of 1 μmol of α-ketobutyrate from homocysteine per minute. The assay procedure can, of course, also be used with purified homocysteinase samples that provide, for example, 1-100 units of enzyme per assay test.
Alternatively, an additional two stage strategy may be used. In the first stage, the partitioning material was DEAE Sepharose® FF, and loading and pre-washing were conducted with 20 mM sodium phosphate buffer, pH 7.2. Elution of the protein was accomplished using a linear gradient (8 ml/min) from 20 mM sodium phosphate buffer, pH 7.2 (solution A) to 20 mM sodium phosphate buffer, pH 7.2, 500 mM NaCl (solution B). In the second stage, the partitioning material was phenyl Sepharose® 6-FF, and loading and pre-washing were conducted with 0.6 M NH4SO4 in 20 mM sodium phosphate buffer, pH 7.2. Elution of the protein was accomplished using a linear gradient (5 ml/min) from 0.6 M NH4SO4, 20 mM sodium phosphate buffer, pH 7.2 (solution A) to 20 mM sodium phosphate buffer, pH 7.2, (solution B). The following purification results were obtained for this alternate procedure. The above-described cell-lysate contained 8400 units of homocysteinase at a specific activity (units/mg) of 5.2. Following completion of pre-column procedures, 6,300 units were recovered at a specific activity of 64 (about 75% yield). Upon completion of the DEAE Sepharose®-FF step (first column), 5,040 units were recovered at a specific activity of 172 (60% yield), while after the phenyl Sepharose® 6-FF step (second column), 4,200 units remained at a specific activity of 300 (50% yield).
An activity assay for the keto product of the α, γ or α,β-elimination (α-keto butryate for homocysteine) was carried out in a 1.5 ml Eppindorf tube using 1-ml. of 50 mM phosphate buffer pH 8.0 (also containing 10 μM pyridoxal phosphate and 20 mM homocysteine) for 10 minutes at 37° C., with varying amounts of enzyme. The reaction was stopped by adding 0.5 ml of 4.5% TCA. […]
The amount of reaction product was determined by spectrophotometry at OD335. […] The amount of protein was determined with the Lowry Reagent Kit (Sigma) with bovine serum albumin as a standard. The specific activity was calculated as units/mg protein, with one unit of enzyme defined as the amount that catalyzed the formation of 1 μmol of α-ketobutyrate/minute.

A short description of data set [5]: Single enzyme assay detecting product hydrogen sulfide: contribution of homocysteine versus cysteine. Format: biochemical. The source says:
According to the preferred practice of the invention, homocysteinases are provided wherein the relative activities of said enzymes toward homocysteine versus cysteine are such that, by detecting product hydrogen sulfide, the apparent concentration of homocysteine measured in a patient sample (which reflects also a contribution from cysteine) is less that about 150%, preferably less than about 110%, and most preferably less than about 102%, of the actual value thereof. In a further preferred example of the invention, for example using the novel Trichomonas homocysteinase expressed from pAC2-1, the apparent concentration of homocysteine measured in a single enzyme assay reflects no more than about a 1% false contribution from cysteine.
In general, useful diagnostic information can be obtained when the amount of produced hydrogen sulfide attributable to homocysteine is about one half of the total. […] Preferably, however the fraction of total hydrogen sulfide detected in an assay that is attributable to homocysteine is at least 90%, preferably 95%, more preferably 98%, and most preferably 99% or greater. The 99% level is readily obtained according to the practice of the invention, for example using the homocysteinase represented by SEQ ID NO: 10. […]

Usually Km stands for the concentration of substrate that gives half-maximal velocity. `N[C@@H](CCS)C(=O)O` (racemic) [homocysteine]: the Michaelis-Menten constant (Km) in data set [1] is ~0.5 mM.
For the molecule “L-methionine-alpha-deamino-gamma-mercaptomethane lyase [P. putida enzyme]”, the “apparent preference for homocysteine over cysteine” value in data set [2] is recorded as ~10 fold.
Consider “Trichomonas vaginalis homocysteinase, pAC2-1 clone (recombinant in E. coli BL21 (DE3)), SEQ ID NO: 10; versus mgl1 (SEQ ID NO: 12): Phe47 to Leu, Asp172 to Glu, Ser308 to Tyr; N-terminal 6x His (Trichomonas vaginalis; D172E/F47L/S308Y)”, for which the values for the Km in the data set on N[C@@H](CS)C(=O)O, in the data set on CSCC[C@H](N)C(=O)O and in the data set with N[C@@H](CCS)C(=O)O were 3.45 mM, 3.1 mM and 4.8 mM, respectively.

B1: SEQ ID NO: 10: recombinant Trichomonas vaginalis homocysteinase from E. coli clone pAC2-1 (ATCC 98549), with 6 N-terminal histidine residues (protein)
chain: MHHHHHHMSHERMTPATACIHANPQKDQFGAAIPPIYQTSTFVFDNCQQGGNRLAGQESGYIYTRLGNPTVSNLEGKIAFLEKTEACVATSSGMGAIAATVLTILKAGDHLISDECLYGCTHALFEHALTKFGIQVDFINTAIPGEVKKHMKPNTKIVYFETPANPTLKIIDMERVCKEAHSQEGVLVIADNTFCSPMITNPVDFGVDVVVHSATKYINGHTDVVAGLICGKADLLQQIRMVGIKDITGSVISPHDAWLITRGLSTLNIRMKAESENAMKVAEYLKSHPAVEKVYYPGFEDHEGHDIAKKQMRMYGSMITFILKSGFEGAKKLLDNLKLITLAVSLGGCESLIQHPASMTHAVVPKEEREAAGITDGMIRLSVGIEDADELIADFKQGLDALL
modifications: N-terminal His6 tag
notes: recombinant Trichomonas vaginalis homocysteinase from E. coli clone pAC2-1 (ATCC 98549), with 6 N-terminal histidine residues
B1: the “activity for homocysteine relative to cysteine and methionine” value in data set [3] is “at least 100 fold”. Also, the specific activity is 172 units/mg in data set [4] (after DEAE Sepharose-FF step); 300 units/mg in data set [4] (after phenyl Sepharose 6-FF step); 64 units/mg in data set [4] (after pre-column procedures); 5.2 units/mg in data set [4] (cell-lysate); 40 units/mg in data set [4] (commercial product HYase from AntiCancer, Inc). For the same molecule, the “fraction of total hydrogen sulfide detected that is attributable to homocysteine” value in data set [5] (single enzyme assay of patient samples) was ≥ 99%. Also, in data set [5] (single enzyme assay, product hydrogen sulfide detected), the “false contribution from cysteine to apparent homocysteine concentration” value was ≤ 1%.
